Experimental data taken from patent US6383734.
One block for each substance: values may come before it.

Columns and labels:
[1] = target: Raf-CX (Raf modified to translocate to the plasma membrane independently of Ras) (UniProt P04049); assay: cell-based or functional assay
[2] = target: myc-tagged wild type Raf-1 (UniProt P04049); assay: cell-based or functional assay
[3] = target: recombinant His-tagged mouse PAK3 from Sf9 cells (UniProt Q61036)
[4] = target: Raf-CR3 (wild type), recombinant Raf-1 catalytic fragment, calmodulin binding protein fusion (UniProt P04049)
Raf-CR3[D338E339] = Raf-CR3[D338E339] (UniProt P04049)
[5] = target: myc-tagged wild type Raf-1 (UniProt P04049)

Chain of p37, purified 37-kD Raf-1 serine 338/339 protein kinase from rat spleen (truncated PAK3) (chain, as listed by the source): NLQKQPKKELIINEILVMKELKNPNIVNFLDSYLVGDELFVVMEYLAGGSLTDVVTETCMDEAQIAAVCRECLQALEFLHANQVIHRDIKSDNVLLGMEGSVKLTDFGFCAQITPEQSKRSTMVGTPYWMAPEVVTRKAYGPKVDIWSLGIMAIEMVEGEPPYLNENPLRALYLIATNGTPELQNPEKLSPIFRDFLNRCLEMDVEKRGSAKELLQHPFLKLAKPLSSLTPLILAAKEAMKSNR
Chain of recombinant His-tagged mouse PAK3 from Sf9 cells (Q61036 other isoform, or with tags, fused parts or gaps): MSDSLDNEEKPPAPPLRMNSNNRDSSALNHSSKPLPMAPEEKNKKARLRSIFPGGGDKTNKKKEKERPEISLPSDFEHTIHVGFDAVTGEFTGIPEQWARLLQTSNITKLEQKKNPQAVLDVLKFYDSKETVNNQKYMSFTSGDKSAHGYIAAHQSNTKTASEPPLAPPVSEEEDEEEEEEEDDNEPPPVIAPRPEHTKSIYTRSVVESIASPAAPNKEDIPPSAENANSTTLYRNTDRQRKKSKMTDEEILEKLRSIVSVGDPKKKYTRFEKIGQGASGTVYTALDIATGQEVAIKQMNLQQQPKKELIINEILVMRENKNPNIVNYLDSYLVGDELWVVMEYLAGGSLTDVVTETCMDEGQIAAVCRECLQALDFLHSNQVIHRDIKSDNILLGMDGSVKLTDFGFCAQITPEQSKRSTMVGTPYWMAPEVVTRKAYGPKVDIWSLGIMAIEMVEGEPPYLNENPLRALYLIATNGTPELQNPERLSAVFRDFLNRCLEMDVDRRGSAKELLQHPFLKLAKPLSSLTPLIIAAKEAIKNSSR

reduction of the intrinsic Raf kinase activity in COS-7 cells [1]: > 70%
reduction of the Ras[V12]-inducible activation of Raf-1 in COS-7 cells [2]: > 50%
Substance: dominant negative HA-tagged PAK3[R278] (enzyme)

Substance: GST-Cdc42 charged with GTPγS
stimulation of the Raf-1 peptide and Raf-CR3 serine 338/339 kinase activity of PAK3 [3]: stimulated up to six-fold by co-incubation with GST-Rac-GTPγS or GST-Cdc42-GTPγS

Substance: p37, purified 37-kD Raf-1 serine 338/339 protein kinase from rat spleen (truncated PAK3)
specific activity (Raf-1 peptide phosphorylation) (Raf-1 (331-345) peptide): extremely high specific activity (19,500 pmol/min/mg)
phosphorylation of Raf-CR3 (32P, SDS-PAGE, autoradiography) [4]: The purified kinase phosphorylated the wild type Raf-CR3
share of incorporated 32P in the serine 338/339 tryptic peptides [4]: Over 95% of the 32P incorporated within the phosphorylated Raf-CR3 was associated with the serine 338/339 tryptic peptides
phosphorylation of Raf-CR3 (32P, SDS-PAGE, autoradiography) (Raf-CR3[D338E339]): failed to significantly phosphorylate the Raf-CR3[D338E339] mutant

Substance: constitutively active HA-tagged PAK3[S91,A93,A95]
increase in the amount of phosphorylated serine 338 (immunoprecipitation with phosphoserine 338-specific antibody, 9E10 blot) [5]: 2.5 and 6.5-fold increases in the amount of phosphorylated serine 338
